Results: PMC6356648

Molecular target: laminin-332 produced and deposited by iNFs and iCAFs (human (endogenous in iNFs and iCAFs)) (UniProt Q16787)

- contraction of a collagen-I gel by iCAFs, untreated (reference): 73%
- contraction of a collagen-I gel by iCAFs, with BM2 (20 µg/mL): 44%
- contraction of a collagen-I gel by iCAFs, with lebein-1 (10 µg/mL): 34%
Substance: integrin α3β1 (from UniProt P26006 33-1051; P05556 21-798) (receptor)
